The text below walks through data of paper PMC6727773 (Molecular Biology of the Cell, 2019).

This test concerns the target T1, His-MPDZ-PDZ1-4 (aa 1-700) WT (human, UniProt O75970-3 1-700).
T1 sequence (looked up): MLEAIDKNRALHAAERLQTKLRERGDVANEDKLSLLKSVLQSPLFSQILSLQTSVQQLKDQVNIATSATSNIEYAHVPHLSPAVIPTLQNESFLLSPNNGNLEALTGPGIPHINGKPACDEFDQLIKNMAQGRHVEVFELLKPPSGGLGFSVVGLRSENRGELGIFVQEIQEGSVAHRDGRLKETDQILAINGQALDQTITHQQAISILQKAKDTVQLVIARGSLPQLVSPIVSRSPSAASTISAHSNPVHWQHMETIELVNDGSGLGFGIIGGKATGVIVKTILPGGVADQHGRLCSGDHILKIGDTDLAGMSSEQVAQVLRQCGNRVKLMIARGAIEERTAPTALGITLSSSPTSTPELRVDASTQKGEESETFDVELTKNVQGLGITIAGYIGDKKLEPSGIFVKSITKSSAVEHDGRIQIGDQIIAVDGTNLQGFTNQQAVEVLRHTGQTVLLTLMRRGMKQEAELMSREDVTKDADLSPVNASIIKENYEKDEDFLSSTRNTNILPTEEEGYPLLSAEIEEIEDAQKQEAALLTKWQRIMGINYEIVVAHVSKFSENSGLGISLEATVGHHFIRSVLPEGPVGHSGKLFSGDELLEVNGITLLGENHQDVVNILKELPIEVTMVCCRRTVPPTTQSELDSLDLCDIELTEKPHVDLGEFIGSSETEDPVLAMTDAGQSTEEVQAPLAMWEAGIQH
Nature of the test: pull-down.

B1: GST-DAPLE (aa 1908-2028) (domain or fragment, human, UniProt Q9P219 1908-2028, looked up)
chain: IATAGAGAAAAGSGSNSQLLHFSPAAAPAARTKPKAPPRSGEVATITPVRAGLSLSEGDGVPGQGCSEGLPAKSPGRSPDLAPHLGRALEDCSRGSVSKSSPASPEPGGDPQTVWYEYGCV
On to B1, for which the binding result is given as “binds”.
